What all share (assay): FCM
The target in assay [1] is T1, human nectin-1 protein (human, UniProt Q15223 31-517).
T1 construct: transient in CHO-K1 from pCMV-Tag4-Nectin-1
T1 sequence: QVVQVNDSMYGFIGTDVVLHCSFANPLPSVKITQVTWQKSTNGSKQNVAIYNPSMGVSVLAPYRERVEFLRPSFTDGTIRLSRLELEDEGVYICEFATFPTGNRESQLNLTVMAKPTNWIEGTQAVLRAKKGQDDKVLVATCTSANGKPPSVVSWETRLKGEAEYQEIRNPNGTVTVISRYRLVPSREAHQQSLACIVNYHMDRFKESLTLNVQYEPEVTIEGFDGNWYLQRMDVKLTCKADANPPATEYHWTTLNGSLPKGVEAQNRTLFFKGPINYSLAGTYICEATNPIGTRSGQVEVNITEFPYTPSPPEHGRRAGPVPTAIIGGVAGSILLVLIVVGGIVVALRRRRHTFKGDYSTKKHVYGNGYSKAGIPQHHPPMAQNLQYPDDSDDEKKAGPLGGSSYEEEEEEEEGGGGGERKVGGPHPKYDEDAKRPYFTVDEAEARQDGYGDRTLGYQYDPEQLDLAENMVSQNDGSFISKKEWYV
Procedure: (§1) Specifically, CHO-K1 cell line was incubated in a T75 flask charged with a medium mixture of DMEM and F-12 in equivalent volumes (Invitrogen) supplmented with 10% FBS (JRH) at 37° C. for 1 to 2 days in a 5% carbon dioxide gas flow. […] Four hours after the transfection, the medium for the CHO-K1 cells was exchanged with a fresh aliquot of the medium described above, followed by incubation for further 2 days. These cells were washed twice with D-PBS, detached by Cell Dissociation Buffer, enzyme-free, PBS-based (Invitrogen) and resuspended in D-PBS (−) containing 1% FBS and 0.1% sodium azide (hereinafter referred to as FCM buffer) at a density of 5×10⁶ cells/mL. […] After 200 μL of FCM buffer was added to each well and washed once by centrifugal operation, 50 μL/well of Alexa488-labeled secondary antibody diluted in FCM buffer to 10 μg/mL was added for suspension, which was then reacted on ice for an hour.

Assay [2] deals with T2, human Nec1-5 protein (human, UniProt P15151 21-417).
T2 construct: transient in CHO-K1 from pCMV-Tag4-Nec1-5; also called Necl-5
T2 sequence: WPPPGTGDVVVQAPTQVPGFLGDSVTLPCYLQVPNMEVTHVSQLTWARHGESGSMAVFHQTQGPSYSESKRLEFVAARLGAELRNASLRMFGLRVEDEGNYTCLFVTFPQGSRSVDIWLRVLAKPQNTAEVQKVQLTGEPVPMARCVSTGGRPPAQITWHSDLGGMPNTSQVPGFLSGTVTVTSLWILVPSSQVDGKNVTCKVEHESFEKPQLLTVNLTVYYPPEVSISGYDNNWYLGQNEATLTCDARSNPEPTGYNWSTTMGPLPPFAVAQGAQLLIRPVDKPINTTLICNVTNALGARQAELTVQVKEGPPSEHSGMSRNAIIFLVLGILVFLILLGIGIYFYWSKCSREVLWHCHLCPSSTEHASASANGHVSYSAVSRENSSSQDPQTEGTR
Procedure: as §1

Assay [3] has as its target T3, human nectin-4 protein (human, UniProt Q96NY8 32-510).
T3 construct: transient in CHO-K1 from pCMV-Tag4-Nectin-4
T3 sequence: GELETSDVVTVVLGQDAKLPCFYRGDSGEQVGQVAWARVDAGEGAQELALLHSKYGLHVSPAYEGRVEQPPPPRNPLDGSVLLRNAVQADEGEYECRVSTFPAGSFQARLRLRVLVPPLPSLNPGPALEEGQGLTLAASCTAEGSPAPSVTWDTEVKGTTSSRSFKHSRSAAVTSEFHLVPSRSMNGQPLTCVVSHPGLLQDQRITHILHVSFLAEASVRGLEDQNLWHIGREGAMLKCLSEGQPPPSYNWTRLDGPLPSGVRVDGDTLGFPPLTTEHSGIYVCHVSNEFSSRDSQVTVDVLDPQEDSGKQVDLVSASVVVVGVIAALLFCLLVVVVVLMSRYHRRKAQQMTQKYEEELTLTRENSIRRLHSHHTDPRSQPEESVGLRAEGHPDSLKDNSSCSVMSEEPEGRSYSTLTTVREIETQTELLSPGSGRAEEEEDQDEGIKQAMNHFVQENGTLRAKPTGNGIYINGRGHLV
Procedure: as §1

Assay [4] concerns the target T4, nectin-2 Ig2 domain-deficient protein (human, UniProt Q92692 32-538).
T4 construct: transient in CHO-K1; also called delta-Ig2; Nectin-2ΔIg2
T4 sequence: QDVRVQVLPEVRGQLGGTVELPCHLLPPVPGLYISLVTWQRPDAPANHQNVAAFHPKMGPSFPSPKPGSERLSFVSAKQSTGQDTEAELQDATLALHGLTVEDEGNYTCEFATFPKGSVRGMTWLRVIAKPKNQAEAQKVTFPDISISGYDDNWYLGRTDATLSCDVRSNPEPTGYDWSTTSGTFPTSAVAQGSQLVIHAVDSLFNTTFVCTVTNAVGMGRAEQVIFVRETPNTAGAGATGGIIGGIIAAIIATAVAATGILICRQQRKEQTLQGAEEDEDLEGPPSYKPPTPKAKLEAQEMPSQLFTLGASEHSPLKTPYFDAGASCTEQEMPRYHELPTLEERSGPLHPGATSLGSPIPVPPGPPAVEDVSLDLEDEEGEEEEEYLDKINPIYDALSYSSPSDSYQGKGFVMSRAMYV
Procedure: (§2) After 200 μL of FCM buffer was added to each well and washed once by centrifugal operation, 50 μL each of Alexa488-labeled secondary antibody diluted in FCM buffer to 10 μg/mL was added to and mixed therewith, and the mixture was then reacted on ice for an hour. The Alexa488-labeled secondary antibody used was Alexa Fluor488 goat anti-human IgG (H+L) for the human antibodies and Alexa Fluor488 goat anti-rabbit IgG (H+L) (Invitrogen) for the rabbit antibody. The cells in each well were washed twice with FCM buffer and then resuspended in 250 μL of FCM buffer. Using the flow cytometer MPL500 (BECKMAN COULTER), the fluorescence intensity of stained cells was measured to determine the ratio of the median value of fluorescence intensities of the respective antibodies in the primary antibody group to the median value of fluorescence intensities in the negative control group.

In assay [5] the target is T5, nectin-2 Ig1 domain-deficient protein (human, UniProt Q92692 32-538).
T5 construct: transient in CHO-K1; also called delta-Ig1; Nectin-2ΔIg1
T5 sequence: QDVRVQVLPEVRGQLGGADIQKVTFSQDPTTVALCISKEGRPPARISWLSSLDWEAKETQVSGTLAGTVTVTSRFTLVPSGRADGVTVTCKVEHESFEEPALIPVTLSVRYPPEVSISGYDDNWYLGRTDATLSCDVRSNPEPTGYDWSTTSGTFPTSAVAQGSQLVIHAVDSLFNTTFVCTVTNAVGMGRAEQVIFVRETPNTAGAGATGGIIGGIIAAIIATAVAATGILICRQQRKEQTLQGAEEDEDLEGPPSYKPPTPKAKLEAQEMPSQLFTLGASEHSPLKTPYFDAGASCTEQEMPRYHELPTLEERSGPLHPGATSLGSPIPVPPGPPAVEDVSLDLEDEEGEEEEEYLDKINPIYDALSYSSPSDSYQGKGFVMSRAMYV
Procedure: as §2

Changes are numbered by the printed parent chain.

B1: Nec1-803-2 (antibody, human IgG1, V domains shown)
VH: QVQLQESGPGLVKPSETLSLTCTVSGGSISSYYWTWIRQPPGKGLEWIGYIYYSGSTNSNPSLKSRVTISVDTSKNQFSLKLSSVTAADTAVYYCTRDPGEDYNYGMDVWGQGTTVTVSS
VL: AIQLTQSPSSLSASVGDRVTITCRASQGISSALAWYQQKPGKAPKLLIYDASSLESGVPSRFSGSGSGTDFTLTISSLQPEDFATYYCQQFNSYPRTFGQGTKVEIK
B1: the binding result in assay [1], in assay [2] and in assay [3] was “no binding (tested: 6 µg/mL)” throughout.

B2: Nec1-834-1 (antibody, human IgG1, V domains shown)
VH: B1 VH with G26S, G27A, T35S, S59Y, V71I, T96A, P99A, N104S
VL: AIQLTQSPSSLSASVGDRVTITCRASQGISSALAWYQQKPGKAPKLLIYDASSLESGVPSRFSGSGSGTDFTLTISSLQPEDFATYYCQQFNSYRTFGQGTKVEIK
notes: human IgG1/k from hybridoma FERM BP-10428
For B2, the binding result in assay [1], in assay [2] and in assay [3] was “no binding (tested: 6 µg/mL)” each time.

B3: Nec1-554-1 SP3 (antibody, V domains shown)
VH: EVQLVESGGGLVKPGGSLRLSCAASGFTFSSYNMNWVRQAPGKGLEWVSSISSSSSYIYYADSVKGRFTISRDNAKNSLYLQMNSLRAEDTAVYYCARDYYGSGTYYLFDYWGQGTLVTVSS
VL: EIVLTQSPDFQSVTPKEKVTITCRASQSIGSSLHWYQQKPDQSPKLLIKYASQSFSGVPSRFSGSGSGTDFTLTINSLEAEDAAAYYCHQSRSLPITFGQGTRLEIK
notes: also called antibody fraction (SP3)
Regarding B3, the binding result in assay [4] is on record as “no binding (tested: ratio <2 = no reactivity; 6 µg/mL)”. Moreover, the median fluorescence ratio in assay [5] stood at 4.3.

(Values after US20100008928A1 (Takeda / Millennium, published 2010).)
